B1: VNAR clone F1 fused N-terminally to human IgG1 Fc (VNAR-hFc) (Fc fusion)
chain: ARVDQTPQTITKEEGESLTINCVLRVHGRALASTSWYRKKSGSTREETISKGGRYVETVNSGSKSFSLRINDLTVEDSGTYRCNVYGLSSGDIEGVKKIDVYGDGTAVTVNA
notes: Bivalent VNAR-Fc from Expi293 cells; also called F1-hFc; not shown: human IgG1 Fc (hinge, CH2 and CH3) as encoded by vector pFUSE-hIgG1e3-Fc2
B2: F12 variant F12-G02 as VNAR-hFc fusion (Fc fusion)
chain: ARVDQTPQTITKEEGESLTINCVLRVHGRALASTSWYRKKSGSTREETISKGGRYVETVNSGSKSFSLRINDLTVEDSGTYRCNVYGLMNVDIEGVKKIDVYGDGTAVTVNA
notes: not shown: human IgG1 Fc (hinge, CH2 and CH3) as encoded by vector pFUSE-hIgG1e3-Fc2
B3: F12 variant F12-G04 as VNAR-hFc fusion (Fc fusion)
chain: ARVDQTPQTITKEEGESLTINCVLRVHGRALASTSWYRKKSGSTREETISKGGRYVETVNSGSKSFSLRINDLTVEDSGTYRCNVNGLSSGDIEGVKKIDVYGDGTAVTVNA
notes: as for B2
B4: F12 variant F12-A01 as VNAR-hFc fusion (Fc fusion)
chain: ARVDQTPQTITKEEGESLTINCVLRVHGRALASTSWYRKKSGSTREETISKGGRYVETVNSGSKSFSLRINDLTVEDSGTYRCNVNGLSSGDKEGVKKIDVYGDGTAVTVNA
notes: as for B2
B5: F12 variant F12-H04 as VNAR-hFc fusion (Fc fusion)
chain: ARVDQTPQTITKEEGESLTINCVLRVHGRALASTSWYRKKSGSTREETISKGGRYVETVNSGSKSFSLRINDLTVEDSGTYRCNVYGLMQGDIEGVKKIDVYGDGTAVTVNA
notes: as for B2
B6: F12 variant F12-C01 as VNAR-hFc fusion (Fc fusion)
chain: ARVDQTPQTITKEEGESLTINCVLRVHGRALASTSWYRKKSGSTREETISKGGRYVETVNSGSKSFSLRINDLTVEDSGTYRCNVYGLSSGDSEGVKKIDVYGDGTAVTVNA
notes: as for B2
B7: F12 variant F12-E03 as VNAR-hFc fusion (Fc fusion)
chain: ARVDQTPQTITKEEGESLTINCVLRVHGRALASTSWYRKKSGSTREETISKGGRYVETVNSGSKSFSLRINDLTVEDSGTYRCNVNGLSSGDQEGVKKIDVYGDGTAVTVNA
notes: as for B2
B8: VNAR clone F12 fused N-terminally to human IgG1 Fc (VNAR-hFc) (Fc fusion)
chain: ARVDQTPQTITKEEGESLTINCVLRVHGRALASTSWYRKKSGSTREETISKGGRYVETVNSGSKSFSLRINDLTVEDSGTYRCNVYGLSFGDIEGVKKIDVYGDGTAVTVNA
notes: Bivalent VNAR-Fc from Expi293 cells; also called F12-hFc; VNAR F12-hFc; not shown: human IgG1 Fc (hinge, CH2 and CH3) as encoded by vector pFUSE-hIgG1e3-Fc2
B9: F12 variant F12-B12 as VNAR-hFc fusion (Fc fusion)
chain: ARVDQTPQTITKEEGESLTINCVLRVHGRALASTSWYRKKSGSTREETISKGGRYVETVNSGSKSFSLRINDLTVEDSGTYRCNVNGLSSGDIEGVKKLDVYGDGTAVTVNA
notes: as for B2
B10: VNAR clone G3 fused N-terminally to human IgG1 Fc (VNAR-hFc) (Fc fusion)
chain: ARVDQTPQTITKETGESLTINCVLRDNNCALSTTYWYRKKSGSTNEENISKGGRYVETVNSGSKSFSLRINDLTVEDSGTYRCKVHFFPSFCNSTSIRSVDVYGGGTVVTVNA
notes: Bivalent VNAR-Fc from Expi293 cells; not shown: human IgG1 Fc (hinge, CH2 and CH3) as encoded by vector pFUSE-hIgG1e3-Fc2
B11: VNAR clone H6 fused N-terminally to human IgG1 Fc (VNAR-hFc) (Fc fusion)
chain: ARVDQTPQTITKEEGESLTINCVLRTHSNALASTSWYRKKSGSTREETISKGGRYVETVNSGSKSFSLRINDLTVEDSGTYRCNVYAFLEIQPNIYHEFDVYGDGTAVTVNA
notes: as for B10
B12: VNAR clone D1 fused N-terminally to human IgG1 Fc (VNAR-hFc) (Fc fusion)
chain: ARVDQTPQTITKEEGESLTINCVLRHNYSALASTSWYRKKSGSTREETISKGGRYVETVNSGSKSFSLRINDLTVEDSGTYRCNVYGISFIEEKIRYDFDVYGDGTAVTVNA
notes: Bivalent VNAR-Fc from Expi293 cells; also called D1-hFc; not shown: human IgG1 Fc (hinge, CH2 and CH3) as encoded by vector pFUSE-hIgG1e3-Fc2
B13: VNAR clone E12 fused N-terminally to human IgG1 Fc (VNAR-hFc) (Fc fusion)
chain: ARVDQTPQTITKEEGESLTINCVLRTQDPALASTSWYRKKSGSTREETISKGGRYVETVNSGSKSFSLRINDLTVEDSGTYRCNVYFLLAPTKTKLQGIDVYGDGTAVTVNA
notes: as for B10
B14: VNAR clone H7 fused N-terminally to human IgG1 Fc (VNAR-hFc) (Fc fusion)
chain: ARVDQTPQTITKEEGESLTINCVLRYNNPALASTSWYRKKSGSTREETISKGGRYVETVNSGSKSFSLRINDLTVEDSGTYRCNVYFFPSFLVDKLQSHDVYGDGTAVTVNA
notes: as for B10

Experiments:
[1] = target: T1, ectodomain of human CD98hc (human, UniProt P08195 105-529); assay: ELISA, expression medium of VNAR-hFc on coated protein
T1 chain: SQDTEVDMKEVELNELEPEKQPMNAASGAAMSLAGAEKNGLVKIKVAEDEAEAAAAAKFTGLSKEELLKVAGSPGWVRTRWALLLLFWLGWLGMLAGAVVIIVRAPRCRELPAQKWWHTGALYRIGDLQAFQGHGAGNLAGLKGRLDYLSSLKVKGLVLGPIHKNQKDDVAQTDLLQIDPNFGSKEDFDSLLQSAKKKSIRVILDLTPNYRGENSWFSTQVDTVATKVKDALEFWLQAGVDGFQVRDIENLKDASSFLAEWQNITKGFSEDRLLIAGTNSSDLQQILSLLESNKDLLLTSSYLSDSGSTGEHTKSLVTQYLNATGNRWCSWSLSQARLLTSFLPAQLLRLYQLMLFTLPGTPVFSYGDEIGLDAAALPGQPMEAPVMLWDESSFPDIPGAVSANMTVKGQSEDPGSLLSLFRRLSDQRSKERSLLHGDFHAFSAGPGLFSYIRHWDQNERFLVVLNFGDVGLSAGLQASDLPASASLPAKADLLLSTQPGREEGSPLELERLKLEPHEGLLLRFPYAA

[2] = target: T1, ectodomain of human CD98hc; assay: ELISA, purified VNAR-Fc titrated on coated CD98hc
[3] = target: T1, ectodomain of human CD98hc; assay: ELISA, VNAR-hFc titrated on coated human CD98hc

Binder | Binding [relative units] [1] [relative units] | EC50 [2] [nM] | EC50 [3] [nM]
B1 | 3.76 | 3 | –
B2 | – | – | 10
B3 | – | – | 30
B4 | – | – | 10
B5 | – | – | 20
B6 | – | – | 30
B7 | – | – | 40
B8 | 3.99 | 12 | –
B9 | – | – | 10
B10 | 1.48 | 107 | –
B11 | 3.31 | 6 | –
B12 | 3.5 | 28 | –
B13 | 2.19 | 56 | –
B14 | 3.93 | 6 | –

Reference: patent US20250263502A1 (published 2025)
